According to patent publication US11857697B2, “Compositions and methods for obtaining 3-dimensional lung-like epithelium and related uses thereof” (THE REGENTS OF THE UNIVERSITY OF MICHIGAN, priority 2017, dated 2024):
Entries after “also recorded” stand apart in the source; their conditions may differ.

What was measured:
[1] = system: e13.5 CD1 mouse epithelial lung buds; experiment: EdU incorporation quantified by flow cytometry in cultured mouse lung buds; format: cell-based; conditions: 50-100 ng/mL FGF7 versus 1-10 ng/mL, one week culture, 1 hour EdU pulse
Procedure: Epithelial lung buds were dissected from e13.5 CD1 mice and plated in a matrigel droplet as described above. 3-4 individual buds from one mouse were placed in each droplet and were pooled to serve as a single biological replicate. Three droplets (corresponding to 3 independent biological samples) were assigned to each experimental group, receiving either 1, 10, 50 or 100 ng/mL of FGF7 for 7 days. Media was changed every 2-3 days. Cells were incubated with EdU for 1 hour and stained with the Click-It EdU Alexa Fluor 488 system (ThermoFisher Cat# C10337) according to the manufacturer's instructions. As a control, wells that received 10 ng/mL of FGF7 for 7 days were taken through the EdU steps but were not stained were used to set the gates. For analysis, lung buds were broken into a single cell suspension. 1 mL of accutase (Sigma Cat# A6964) was added to a 15 mL conical tube containing pooled epithelial buds and cells were incubated at 37 degrees Celsius with frequent visual inspection until clumps of cells were no longer visible. 3 mL of basal media (see below) was added to each tube, and cells were centrifuged at 300 g for 5 minutes at 4 degrees Celsius. The supernatant was then withdrawn, and cells were resuspended with 1 mL sterile PBS, filtered through a 70 uM strainer to remove any cell clumps and transferred to a cell sorting tube. […]

[2] = system: E13.5 mouse distal epithelial lung buds; experiment: Isolated E13.5 mouse distal lung bud culture in Matrigel droplet: growth/expansion; format: cell-based
Procedure: Isolated mouse buds were cultured in 4-6 μl droplets of matrigel, covered with media, and kept at 37 degrees Celsius with 5% Carbon Dioxide. Isolated human fetal lung buds were cultured in 25-50 μl droplets of matrigel, covered with media, and kept at 37 degrees Celsius with 5% Carbon Dioxide.
Mouse buds were dissected from E13.5 embryos. For experiments using Sox9CreER; Rosa^Tomato/Tomato mice, 50 ug/g of tamoxifen was dissolved in corn oil and given by oral gavage on E12.5, 24 hours prior to dissection. Briefly, in sterile environment, whole lungs were placed in 100% dispase (Corning Cat#354235) on ice for 30 minutes. Lungs were then transferred using a 25 uL wiretrol tool (Drummond Scientific Cat#S5-000-2050) to 100% FBS (Corning Cat#35-010-CV) on ice for 15 minutes, and then transferred to a solution of Dulbecco's Modified Eagle Medium: Nutrient Mixture F12 (DMEM/F12, ThermoFisher SKU#12634-010) with 10% FBS and 1× Pennicillin-Streptomycin (ThermoFisher Cat#15140122) on ice. To dissect buds, a single lung or lung lobe was transferred by wiretrol within a droplet of media to a 100 mm sterile petri dish. Under a dissecting microscope, the mesenchyme was carefully removed and epithelial bud tips were torn away from the bronchial tree using tungsten needles (Point Technologies, Inc.). Care was taken to remove the trachea and any connective tissue from dissected lungs. Isolated bud tips were picked up using a p20 pipette and added to an eppendorf tube with cold Matrigel (Corning Ref#354248) on ice. The buds were picked up in a p20 pipette with 4-6 uL of Matrigel and plated on a 24-well tissue culture well (ThermoFisher Cat#142475). The plate was moved to a tissue culture incubator and incubated for 5 minutes at 37 degrees Celsius and 5% CO2 to allow the Matrigel droplet to solidify. 500 uL of media was then added to the dish in a laminar flow hood. Media was changed every 2-3 days.
All mouse bud, human fetal bud, and hPSC-derived human lung organoids were grown in low-serum basal media (basal media) with added growth factors. Basal media consisted of Dulbecco's Modified Eagle Medium: Nutrient Mixture F12 (DMEM/F12, ThermoFisher SKU#12634-010) supplemented with 1× N2 supplement (ThermoFisher Catalog#17502048) and […] B27 supplement (ThermoFisher Catalog#17504044), along with 2 mM Glutamax (ThermoFisher Catalog#35050061), 1× Pennicillin-Streptomycin (ThermoFisher Cat#15140122) and 0.05% Bovine Serum Albumin (BSA; Sigma product# A9647). BSA was weighed and dissolved in DMEM F/12 media before being passed through a SteriFlip 0.22 uM filter (Millipore Item# EW-29969-24) and being added to basal media. Media was stored at 4 degrees Celsius for up to 1 month. On the day of use, basal media was aliquoted and 50 ug/mL Ascorbic acid and 0.4 uM Monothioglycerol was added. […]

B1: Recombinant Human Fibroblast Growth Factor 7 (protein, UniProt P21781 32-194, looked up)
Fibroblast growth factor 7: CNDMTPEQMATNVNCSSPERHTRSYDYMEGGDIRVRRLFCRTQWYLRIDKRGKVKGTQEMKNNYNIMEIRTVAVGIVAIKGVESEFYLAMNKEGKLYAKKECNEDCNFKELILENHYNTYASAKWTHNGGEMFVALNQKGIPVRGKKTKKEQKTAHFLPMAIT
notes: Recombinant human growth factor from R&D systems, used at 10 ng/mL unless otherwise noted
**Q.** Which “Proliferation (EdU labeled cells)” value [1] does the source give for B1 here?
**A.** The value was “increased proliferation significantly; also recorded: significant increase in labeled cells”.

**Q.** And the Bud growth ([2]; FGF7 1 ng/mL, 3 and 5 days in vitro)?
**A.** The Bud growth was “very modest growth”.

**Q.** And the Bud growth ([2]; FGF7, all other conditions above 1 ng/mL, 5 days in vitro)?
**A.** The Bud growth was “robust growth”.

**Q.** And the “Growth, expansion and survival of isolated buds” value ([2]; individual growth factor in basal media, FGF7 10 ng/mL, up to two weeks)?
**A.** The value was “promoted growth, expansion a survival of isolated buds for up to two weeks”.
